Measurements reported in publication PMC2728795.

Target: F-actin (freshly polymerized actin) (UniProt P68135)
Assay: co-sedimentation

- percent bound at 5 µM F-actin: 10%
Substance: GST(541–605,Δ25)PRG (from UniProt O15085 541-605) (domain or fragment)
